Results published in doi:10.1101/2020.10.11.334888 (bioRxiv, 2020).

B1: full-length Salmonella FliF (MS ring), overexpressed from pKOT112 (data set 1) (natural protein)
chain: MSATASTATQPKPLEWLNRLRANPRIPLIVAGSAAVAIVVAMVLWAKTPDYRTLFSNLSDQDGGAIVAQLTQMNIPYRFANGSGAIEVPADKVHELRLRLAQQGLPKGGAVGFELLDQEKFGISQFSEQVNYQRALEGELARTIETLGPVKSARVHLAMPKPSLFVREQKSPSASVTVTLEPGRALDEGQISAVVHLVSSAVAGLPPGNVTLVDQSGHLLTQSNTSGRDLNDAQLKFANDVESRIQRRIEAILSPIVGNGNVHAQVTAQLDFANKEQTEEHYSPNGDASKATLRSRQLNISEQVGAGYPGGVPGALSNQPAPPNEAPIATPPTNQQNAQNTPQTSTSTNSNSAGPRSTQRNETSNYEVDRTIRHTKMNVGDIERLSVAVVVNYKTLADGKPLPLTADQMKQIEDLTREAMGFSDKRGDTLNVVNSPFSAVDNTGGELPFWQQQSFIDQLLAAGRWLLVLVVAWILWRKAVRPQLTRRVEEAKAAQEQAQVRQETEEAVEVRLSKDEQLQQRRANQRLGAEVMSQRIREMSDNDPRVVALVIRQWMSNDHE
B2: full-length Salmonella FliF (MS ring), overexpressed from pKOT105 (data set 2) (natural protein)
chain: MSATASTATQPKPLEWLNRLRANPRIPLIVAGSAAVAIVVAMVLWAKTPDYRTLFSNLSDQDGGAIVAQLTQMNIPYRFANGSGAIEVPADKVHELRLRLAQQGLPKGGAVGFELLDQEKFGISQFSEQVNYQRALEGELARTIETLGPVKSARVHLAMPKPSLFVREQKSPSASVTVTLEPGRALDEGQISAVVHLVSSAVAGLPPGNVTLVDQSGHLLTQSNTSGRDLNDAQLKFANDVESRIQRRIEAILSPIVGNGNVHAQVTAQLDFANKEQTEEHYSPNGDASKATLRSRQLNISEQVGAGYPGGVPGALSNQPAPPNEAPIATPPTNQQNAQNTPQTSTSTNSNSAGPRSTQRNETSNYEVDRTIRHTKMNVGDIERLSVAVVVNYKTLADGKPLPLTADQMKQIEDLTREAMGFSDKRGDTLNVVNSPFSAVDNTGGELPFWQQQSFIDQLLAAGRWLLVLVVAWILWRKAVRPQLTRRVEEAKAAQEQAQVRQETEEAVEVRLSKDEQLQQRRANQRLGAEVMSQRIREMSDNDPRVVALVIRQWMSNDHE
B3: FliF(L253A) expressed from pMMiF004 in Salmonella TH12415 (ΔfliF) (natural protein)
chain: MSATASTATQPKPLEWLNRLRANPRIPLIVAGSAAVAIVVAMVLWAKTPDYRTLFSNLSDQDGGAIVAQLTQMNIPYRFANGSGAIEVPADKVHELRLRLAQQGLPKGGAVGFELLDQEKFGISQFSEQVNYQRALEGELARTIETLGPVKSARVHLAMPKPSLFVREQKSPSASVTVTLEPGRALDEGQISAVVHLVSSAVAGLPPGNVTLVDQSGHLLTQSNTSGRDLNDAQLKFANDVESRIQRRIEAIASPIVGNGNVHAQVTAQLDFANKEQTEEHYSPNGDASKATLRSRQLNISEQVGAGYPGGVPGALSNQPAPPNEAPIATPPTNQQNAQNTPQTSTSTNSNSAGPRSTQRNETSNYEVDRTIRHTKMNVGDIERLSVAVVVNYKTLADGKPLPLTADQMKQIEDLTREAMGFSDKRGDTLNVVNSPFSAVDNTGGELPFWQQQSFIDQLLAAGRWLLVLVVAWILWRKAVRPQLTRRVEEAKAAQEQAQVRQETEEAVEVRLSKDEQLQQRRANQRLGAEVMSQRIREMSDNDPRVVALVIRQWMSNDHE
B4: FliF(I252A) expressed from pMMiF002 in Salmonella TH12415 (ΔfliF) (natural protein)
chain: MSATASTATQPKPLEWLNRLRANPRIPLIVAGSAAVAIVVAMVLWAKTPDYRTLFSNLSDQDGGAIVAQLTQMNIPYRFANGSGAIEVPADKVHELRLRLAQQGLPKGGAVGFELLDQEKFGISQFSEQVNYQRALEGELARTIETLGPVKSARVHLAMPKPSLFVREQKSPSASVTVTLEPGRALDEGQISAVVHLVSSAVAGLPPGNVTLVDQSGHLLTQSNTSGRDLNDAQLKFANDVESRIQRRIEAALSPIVGNGNVHAQVTAQLDFANKEQTEEHYSPNGDASKATLRSRQLNISEQVGAGYPGGVPGALSNQPAPPNEAPIATPPTNQQNAQNTPQTSTSTNSNSAGPRSTQRNETSNYEVDRTIRHTKMNVGDIERLSVAVVVNYKTLADGKPLPLTADQMKQIEDLTREAMGFSDKRGDTLNVVNSPFSAVDNTGGELPFWQQQSFIDQLLAAGRWLLVLVVAWILWRKAVRPQLTRRVEEAKAAQEQAQVRQETEEAVEVRLSKDEQLQQRRANQRLGAEVMSQRIREMSDNDPRVVALVIRQWMSNDHE
B5: FliF(L253A), overexpressed in E. coli (natural protein)
chain: MSATASTATQPKPLEWLNRLRANPRIPLIVAGSAAVAIVVAMVLWAKTPDYRTLFSNLSDQDGGAIVAQLTQMNIPYRFANGSGAIEVPADKVHELRLRLAQQGLPKGGAVGFELLDQEKFGISQFSEQVNYQRALEGELARTIETLGPVKSARVHLAMPKPSLFVREQKSPSASVTVTLEPGRALDEGQISAVVHLVSSAVAGLPPGNVTLVDQSGHLLTQSNTSGRDLNDAQLKFANDVESRIQRRIEAIASPIVGNGNVHAQVTAQLDFANKEQTEEHYSPNGDASKATLRSRQLNISEQVGAGYPGGVPGALSNQPAPPNEAPIATPPTNQQNAQNTPQTSTSTNSNSAGPRSTQRNETSNYEVDRTIRHTKMNVGDIERLSVAVVVNYKTLADGKPLPLTADQMKQIEDLTREAMGFSDKRGDTLNVVNSPFSAVDNTGGELPFWQQQSFIDQLLAAGRWLLVLVVAWILWRKAVRPQLTRRVEEAKAAQEQAQVRQETEEAVEVRLSKDEQLQQRRANQRLGAEVMSQRIREMSDNDPRVVALVIRQWMSNDHE
B6: FliF(V266A), overexpressed in E. coli (natural protein)
chain: MSATASTATQPKPLEWLNRLRANPRIPLIVAGSAAVAIVVAMVLWAKTPDYRTLFSNLSDQDGGAIVAQLTQMNIPYRFANGSGAIEVPADKVHELRLRLAQQGLPKGGAVGFELLDQEKFGISQFSEQVNYQRALEGELARTIETLGPVKSARVHLAMPKPSLFVREQKSPSASVTVTLEPGRALDEGQISAVVHLVSSAVAGLPPGNVTLVDQSGHLLTQSNTSGRDLNDAQLKFANDVESRIQRRIEAILSPIVGNGNVHAQATAQLDFANKEQTEEHYSPNGDASKATLRSRQLNISEQVGAGYPGGVPGALSNQPAPPNEAPIATPPTNQQNAQNTPQTSTSTNSNSAGPRSTQRNETSNYEVDRTIRHTKMNVGDIERLSVAVVVNYKTLADGKPLPLTADQMKQIEDLTREAMGFSDKRGDTLNVVNSPFSAVDNTGGELPFWQQQSFIDQLLAAGRWLLVLVVAWILWRKAVRPQLTRRVEEAKAAQEQAQVRQETEEAVEVRLSKDEQLQQRRANQRLGAEVMSQRIREMSDNDPRVVALVIRQWMSNDHE
B7: FliF(I252R), overexpressed in E. coli (natural protein)
chain: MSATASTATQPKPLEWLNRLRANPRIPLIVAGSAAVAIVVAMVLWAKTPDYRTLFSNLSDQDGGAIVAQLTQMNIPYRFANGSGAIEVPADKVHELRLRLAQQGLPKGGAVGFELLDQEKFGISQFSEQVNYQRALEGELARTIETLGPVKSARVHLAMPKPSLFVREQKSPSASVTVTLEPGRALDEGQISAVVHLVSSAVAGLPPGNVTLVDQSGHLLTQSNTSGRDLNDAQLKFANDVESRIQRRIEARLSPIVGNGNVHAQVTAQLDFANKEQTEEHYSPNGDASKATLRSRQLNISEQVGAGYPGGVPGALSNQPAPPNEAPIATPPTNQQNAQNTPQTSTSTNSNSAGPRSTQRNETSNYEVDRTIRHTKMNVGDIERLSVAVVVNYKTLADGKPLPLTADQMKQIEDLTREAMGFSDKRGDTLNVVNSPFSAVDNTGGELPFWQQQSFIDQLLAAGRWLLVLVVAWILWRKAVRPQLTRRVEEAKAAQEQAQVRQETEEAVEVRLSKDEQLQQRRANQRLGAEVMSQRIREMSDNDPRVVALVIRQWMSNDHE
B8: FliF(I252A), overexpressed in E. coli (natural protein)
chain: MSATASTATQPKPLEWLNRLRANPRIPLIVAGSAAVAIVVAMVLWAKTPDYRTLFSNLSDQDGGAIVAQLTQMNIPYRFANGSGAIEVPADKVHELRLRLAQQGLPKGGAVGFELLDQEKFGISQFSEQVNYQRALEGELARTIETLGPVKSARVHLAMPKPSLFVREQKSPSASVTVTLEPGRALDEGQISAVVHLVSSAVAGLPPGNVTLVDQSGHLLTQSNTSGRDLNDAQLKFANDVESRIQRRIEAALSPIVGNGNVHAQVTAQLDFANKEQTEEHYSPNGDASKATLRSRQLNISEQVGAGYPGGVPGALSNQPAPPNEAPIATPPTNQQNAQNTPQTSTSTNSNSAGPRSTQRNETSNYEVDRTIRHTKMNVGDIERLSVAVVVNYKTLADGKPLPLTADQMKQIEDLTREAMGFSDKRGDTLNVVNSPFSAVDNTGGELPFWQQQSFIDQLLAAGRWLLVLVVAWILWRKAVRPQLTRRVEEAKAAQEQAQVRQETEEAVEVRLSKDEQLQQRRANQRLGAEVMSQRIREMSDNDPRVVALVIRQWMSNDHE
B9: FliF(V266R), overexpressed in E. coli (natural protein)
chain: MSATASTATQPKPLEWLNRLRANPRIPLIVAGSAAVAIVVAMVLWAKTPDYRTLFSNLSDQDGGAIVAQLTQMNIPYRFANGSGAIEVPADKVHELRLRLAQQGLPKGGAVGFELLDQEKFGISQFSEQVNYQRALEGELARTIETLGPVKSARVHLAMPKPSLFVREQKSPSASVTVTLEPGRALDEGQISAVVHLVSSAVAGLPPGNVTLVDQSGHLLTQSNTSGRDLNDAQLKFANDVESRIQRRIEAILSPIVGNGNVHAQRTAQLDFANKEQTEEHYSPNGDASKATLRSRQLNISEQVGAGYPGGVPGALSNQPAPPNEAPIATPPTNQQNAQNTPQTSTSTNSNSAGPRSTQRNETSNYEVDRTIRHTKMNVGDIERLSVAVVVNYKTLADGKPLPLTADQMKQIEDLTREAMGFSDKRGDTLNVVNSPFSAVDNTGGELPFWQQQSFIDQLLAAGRWLLVLVVAWILWRKAVRPQLTRRVEEAKAAQEQAQVRQETEEAVEVRLSKDEQLQQRRANQRLGAEVMSQRIREMSDNDPRVVALVIRQWMSNDHE
B10: FliF(L253R), overexpressed in E. coli (natural protein)
chain: MSATASTATQPKPLEWLNRLRANPRIPLIVAGSAAVAIVVAMVLWAKTPDYRTLFSNLSDQDGGAIVAQLTQMNIPYRFANGSGAIEVPADKVHELRLRLAQQGLPKGGAVGFELLDQEKFGISQFSEQVNYQRALEGELARTIETLGPVKSARVHLAMPKPSLFVREQKSPSASVTVTLEPGRALDEGQISAVVHLVSSAVAGLPPGNVTLVDQSGHLLTQSNTSGRDLNDAQLKFANDVESRIQRRIEAIRSPIVGNGNVHAQVTAQLDFANKEQTEEHYSPNGDASKATLRSRQLNISEQVGAGYPGGVPGALSNQPAPPNEAPIATPPTNQQNAQNTPQTSTSTNSNSAGPRSTQRNETSNYEVDRTIRHTKMNVGDIERLSVAVVVNYKTLADGKPLPLTADQMKQIEDLTREAMGFSDKRGDTLNVVNSPFSAVDNTGGELPFWQQQSFIDQLLAAGRWLLVLVVAWILWRKAVRPQLTRRVEEAKAAQEQAQVRQETEEAVEVRLSKDEQLQQRRANQRLGAEVMSQRIREMSDNDPRVVALVIRQWMSNDHE

Target: the molecule itself
Assay: cryo-EM structure
For B1, the “stoichiometry N” value was 34.
With B2 the “stoichiometry N” value was 34.

Target: the molecule itself
Assay: electron microscopy of purified hook-basal bodies
B3: binds.
B4: binds.

Target: the molecule itself
Assay: negative-stain EM
B5: binds.
B6: binds.
B7: binds.
B8: binds.
B9: binds.
B10: binds.
